Source: US20200207859A1 (priority 2017, published 2020)

B1: anti-CD74 (antibody, V domains shown)
VH: QVQLVESGGGVVQPGRSLRLSCAASGFNFSDYGMHWVRQAPGKGLEWVAVIWYDGSISYYADSVKGRFTISRDNSKNTLYLQMNSLRAEDTAVYYCARGGTVEHGAVYGTDVWGQGTTVTVSS
VL: DIQMTQSPSSVSASVGDRVTITCRASQGIGSWLAWYQQKPGKAPKLLIYAADRLQSGVPSRFSGSGSGTDFTLTISSLQPEDFATYYCQQYHTYPLTFGGGTKVEIK
modifications: non-natural residues
B2: Conjugate C: anti-CD74 IgG containing residue 30 conjugated to a val-cit-PAB-hemiasterlin precursor (conjugate)
VH: B1 VH
VL: B1 VL
modifications: non-natural residues
B3: Conjugate F: anti-CD74 IgG containing residue 30 conjugated to a PEG4-MMAE precursor (conjugate)
VH: B1 VH
VL: B1 VL

Columns and labels:
[1] = target: T1, CD74 (Homo sapiens, UniProt P04233); assay: Cell binding assay (FACS), anti-CD74 antibody without conjugation; parameters: unit: geometric MFI
T1 construct: endogenous in cells; host or cells: B-lymphoma, multiple myeloma and leukemia cell lines
T1 sequence (P04233 1-296): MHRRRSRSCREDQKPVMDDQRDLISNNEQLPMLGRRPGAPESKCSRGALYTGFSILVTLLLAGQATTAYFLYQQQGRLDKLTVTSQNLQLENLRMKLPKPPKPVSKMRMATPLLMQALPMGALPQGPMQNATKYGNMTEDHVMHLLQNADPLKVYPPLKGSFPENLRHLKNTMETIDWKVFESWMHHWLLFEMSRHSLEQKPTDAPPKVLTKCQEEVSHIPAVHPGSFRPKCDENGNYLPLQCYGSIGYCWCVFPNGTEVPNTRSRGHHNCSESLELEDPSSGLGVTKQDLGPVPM
Procedure: (§1) Cell lines were maintained in RPMI, high glucose (Cellgro-Mediatech; Manassas, Va.) supplemented with 20% heat-inactivated fetal bovine serum (Hyclone; Thermo Scientific; Waltham, Mass.), 2 mM glutamax (Invitrogen; Carlsbad, Calif.) and 1× Pencillin/streptomycin (Cellgro-Mediatech; Manassas, Va.). Cells were harvested and re-suspended in FACS buffer (DPBS buffer supplemented with 1% bovine serum albumin). […] Cells were washed twice with ice-cold FACS buffer and incubated with 5 ug/ml Alexa 647 labeled donkey anti-human IgG antibody (Jackson Immune-Research) on ice for another 60 mins. Unstained cells and cells stained with secondary antibody alone were used as controls. Samples were then washed twice using FACS buffer and analyzed using a BD FACS Canto system. Mean fluorescence intensities were fitted using non-linear regression analysis with one site specific binding equation on GraphPad Prism. Data was expressed as geometric mean fluorescent intensity vs. antibody concentration in nM.

[2] = target: T1, CD74; assay: as above; parameters: key: NK = no killing; NB = no binding
Procedure: as §1

[3] = target: T1, CD74; assay: as above
Procedure: as §1

[4] = test system: JVM-13 (CLL); assay: Cell killing assay (cell proliferation, Cell Titer-Glo); type: cell-based; conditions: 72 hrs
Procedure: (§2) Cytotoxicity effects of the free drug linkers and conjugates were measured with a cell proliferation assay. A total of 12500 cells in a volume of 25 μl were seeded in a 384-well flat bottom white polystyrene plate on the day of assay. Free drug-linkers and conjugates were formulated at 2× starting concentration (1000 nM for free drug linkers and 100 nM for ADCs) in RPMI medium and filtered through MultiScreen HTS 96-Well Filter Plates (Millipore). Filter sterilized samples were serial diluted (1:3) under sterile conditions and added into treatment wells. Plates were cultured at 37° C. in a CO2 incubator for 72 hrs. For cell viability measurement, 30 μl of Cell Titer-Glo® reagent (Promega Corp.) was added into each well, and plates processed as per product instructions. Relative luminescence was measured on an ENVISION® plate reader (Perkin-Elmer; Waltham, Mass.). Relative luminescence readings were converted to % viability using untreated cells as controls. Data was fitted with non-linear regression analysis, using log(inhibitor) vs. response, variable slope, 4 parameter fit equation using GraphPad Prism. Data was expressed as % relative cell viability vs. dose of free drug-linker or conjugate in nM.

[5] = test system: RPMI-6666 (HL); assay: as above; type: cell-based; conditions: 72 hrs
Procedure: as §2

[6] = test system: SUP-B15 (ALL); assay: as above; type: cell-based; conditions: 72 hrs
Procedure: as §2

[7] = test system: BDCM (AML); assay: as above; type: cell-based; conditions: 72 hrs
Procedure: as §2

[8] = test system: OPM-2 (MM); assay: as above; type: cell-based; parameters: key to Cell Killing Activity Span: NK = no killing; NB = no binding; conditions: 72 hrs
Procedure: as §2

[9] = test system: RPMI-8226 (MM); assay: as above; type: cell-based; parameters: key to Cell Killing Activity Span: NK = no killing; NB = no binding; conditions: 72 hrs
Procedure: as §2

[10] = test system: K562 (CML); assay: as above; type: cell-based; parameters: key to Cell Killing Activity Span: NK = no killing; NB = no binding; conditions: 72 hrs
Procedure: as §2

[11] = test system: SU-DHL-6 (NHL); assay: as above; type: cell-based, human; conditions: 72 hrs
Procedure: as §2

[12] = test system: ARD (MM); assay: as above; type: cell-based, human; conditions: 72 hrs
Procedure: as §2

[13] = test system: ARP-1 (MM); assay: as above; type: cell-based, human; conditions: 72 hrs
Procedure: as §2

Molecule | Cell Killing Activity Span [4] [%] | Cell Killing Activity Span [5] [%] | Cell Killing Activity Span [6] [%] | Cell Killing Activity Span [7] [%] | Cell Killing Activity Span [8] | IC50 [8] [nM] | Cell Killing Activity Span [9] [%] | Cell Killing Activity Span [10] | IC50 [10] [nM] | Cell Killing Activity Span [11] [%] | Cell Killing Activity Span [12] [%] | Cell Killing Activity Span [13] [%] | other results
B1 | – | – | – | – | – | – | – | – | – | – | – | – | Cell Binding Bmax ([1]; ARD (MM) cells): 190; Cell Binding Bmax ([1]; ARP-1 (MM) cells): 341; Cell Binding Bmax ([1]; BDCM (AML) cells): 3059; Cell Binding Bmax ([1]; JVM-13 (CLL) cells): 447; Cell Binding Bmax ([1]; RPMI-6666 (HL) cells): 3879; Cell Binding Bmax ([1]; RPMI-8226 (MM) cells): 119; Cell Binding Bmax ([1]; SU-DHL-6 (NHL) cells): 1565; Cell Binding Bmax ([1]; SUP-B15 (ALL) cells): 680; Cell Binding Bmax ([2]; K562 (CML) cells): NB; Cell Binding Bmax ([2]; OPM-2 (MM) cells): NB; Kd ([3]; ARD (MM) cells): 2.6 nM; Kd ([3]; BDCM (AML) cells): 4.5 nM; Kd ([3]; JVM-13 (CLL) cells): 2.5 nM; Kd ([3]; RPMI-6666 (HL) cells): 2.3 nM; Kd ([3]; RPMI-8226 (MM) cells): 3.6 nM; Kd ([3]; SU-DHL-6 (NHL) cells): 2 nM; Kd ([3]; SUP-B15 (ALL) cells): 3.5 nM
B2 | 54 | 84 | 68 | 89 | NK | > 50 | 43 | NK | > 50 | 97 | 74 | 87 | –
B3 | 59 | 82 | 65 | 94 | NK | > 50 | 31 | NK | > 50 | 97 | 73 | 93 | IC50 [4]: 5 nM; IC50 [6]: 3.7 nM; IC50 [7]: 1.4 nM; IC50 [9]: 20 nM; IC50 [12]: 16 nM; IC50 [13]: 4.2 nM
